From patent US20240002531A1 (ONO PHARMACEUTICAL, published 2024)
Where two headings read alike, the source gives them in different places. One block for each binder: values may come before it.

Experiments:
[1] = molecular target: T1, HER2 peptide p603-622 (amino acids 603 to 622 of human HER2) (human); test: SPR Biacore, mAb on chip, peptide analyte, 1:1 fit;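 further: binding measured at 25 °C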
T1 construct: Synthetic peptide; also called wild-type HER2 peptide
T1 peptide: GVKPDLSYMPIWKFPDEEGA

[2] = molecular target: T2, G603A peptide (HER2 603-622 with G603A) (human); test: SPR Biacore, mAb on chip, peptide analyte, 1:1 fit;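 further: binding measured at 25 °C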
T2 peptide: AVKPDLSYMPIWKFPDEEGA

[3] = molecular target: T3, V604A peptide (HER2 603-622 with V604A) (human); test: SPR Biacore, mAb on chip, peptide analyte, 1:1 fit;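 further: binding measured at 25 °C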
T3 peptide: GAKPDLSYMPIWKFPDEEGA

[4] = molecular target: T4, K605A peptide (HER2 603-622 with K605A) (human); test: SPR Biacore, mAb on chip, peptide analyte, 1:1 fit;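 further: binding measured at 25 °C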
T4 peptide: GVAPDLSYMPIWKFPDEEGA

[5] = molecular target: T5, D607A peptide (HER2 603-622 with D607A) (human); test: SPR Biacore, mAb on chip, peptide analyte, 1:1 fit
T5 peptide: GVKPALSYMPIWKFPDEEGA

[6] = molecular target: T6, L608A peptide (HER2 603-622 with L608A) (human); test: SPR Biacore, mAb on chip, peptide analyte, 1:1 fit;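 further: binding measured at 25 °C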
T6 peptide: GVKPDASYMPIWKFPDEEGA

[7] = molecular target: T7, D618A peptide (HER2 603-622 with D618A) (human); test: SPR Biacore, mAb on chip, peptide analyte, 1:1 fit
T7 peptide: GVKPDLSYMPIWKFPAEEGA

[8] = molecular target: T8, E620A peptide (HER2 603-622 with E620A) (human); test: SPR Biacore, mAb on chip, peptide analyte, 1:1 fit;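 further: binding measured at 25 °C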
T8 peptide: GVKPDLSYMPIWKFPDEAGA

[9] = molecular target: T9, G621A peptide (HER2 603-622 with G621A) (human); test: SPR Biacore, mAb on chip, peptide analyte, 1:1 fit
T9 peptide: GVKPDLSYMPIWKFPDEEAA

[10] = molecular target: T10, HER2-K615A expressed on CHO-K1 cells (human, UniProt P04626 23-1255); test: flow cytometry on CHO-K1 cells expressing the point mutant
T10 construct: also called K615A point mutant; not shown: PA tag at the N terminus; RAP tag and MAP tag at the C terminus

[11] = molecular target: T11, HER2-F616A expressed on CHO-K1 cells (human, UniProt P04626 23-1255); test: as above
T11 construct: also called F616A point mutant; not shown: PA tag at the N terminus; RAP tag and MAP tag at the C terminus

[12] = molecular target: T12, HER2-W614A expressed on CHO-K1 cells (human, UniProt P04626 23-1255); test: flow cytometry on CHO-K1 cells expressing HER2-W614A
T12 construct: also called W614A point mutant; not shown: PA tag at the N terminus; RAP tag and MAP tag at the C terminus

[13] = molecular target: T13, I613A peptide (HER2 603-622 with I613A) (human); test: SPR Biacore, mAb on chip, peptide analyte, equilibrium analysis
T13 construct: also called 1613A
T13 peptide: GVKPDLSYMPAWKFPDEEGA

[14] = molecular target: T14, W614A peptide (HER2 603-622 with W614A) (human); test: as above
T14 peptide: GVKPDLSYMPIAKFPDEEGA

[15] = molecular target: T15, K615A peptide (HER2 603-622 with K615A) (human); test: as above
T15 peptide: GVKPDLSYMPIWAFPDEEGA

[16] = molecular target: T16, F616A peptide (HER2 603-622 with F616A) (human); test: as above
T16 peptide: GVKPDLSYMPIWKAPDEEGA

[17] = molecular target: T5, D607A peptide (HER2 603-622 with D607A); test: SPR Biacore, mAb on chip, peptide analyte, 1:1 fit
[18] = molecular target: T13, I613A peptide (HER2 603-622 with I613A); test: SPR Biacore, mAb on chip, peptide analyte, 1:1 fit;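 further: where kon or koff could not be resolved by kinetic fitting, Kd comes instead from steady-state equilibrium analysis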
[19] = molecular target: T15, K615A peptide (HER2 603-622 with K615A); test: SPR Biacore, mAb on chip, peptide analyte, 1:1 fit;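 further: where kon or koff could not be resolved by kinetic fitting, Kd comes instead from steady-state equilibrium analysis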
[20] = molecular target: T16, F616A peptide (HER2 603-622 with F616A); test: SPR Biacore, mAb on chip, peptide analyte, 1:1 fit;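 further: where kon or koff could not be resolved by kinetic fitting, Kd comes instead from steady-state equilibrium analysis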
[21] = molecular target: T7, D618A peptide (HER2 603-622 with D618A); test: SPR Biacore, mAb on chip, peptide analyte, 1:1 fit
[22] = molecular target: T17, A622G peptide (HER2 603-622 with A622G) (human); test: SPR Biacore, mAb on chip, peptide analyte, 1:1 fit;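 further: where kon or koff could not be resolved by kinetic fitting, Kd comes instead from steady-state equilibrium analysis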
T17 peptide: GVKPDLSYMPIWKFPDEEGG

[23] = molecular target: T12, HER2-W614A expressed on CHO-K1 cells; test: flow cytometry on CHO-K1 cells expressing the point mutant

Kd [1]: 22.8 nM | koff [1]: 0.00543 s⁻¹ | kon [1]: 238000 M⁻¹ s⁻¹ | Kd [2]: 16.9 nM | koff [2]: 0.00564 s⁻¹ | kon [2]: 335000 M⁻¹ s⁻¹ | Kd [3]: 22.7 nM | koff [3]: 0.00619 s⁻¹ | kon [3]: 273000 M⁻¹ s⁻¹ | Kd [4]: 26.5 nM | koff [4]: 0.00643 s⁻¹ | kon [4]: 243000 M⁻¹ s⁻¹ | Kd [5]: 17.6 nM | koff [5]: 0.00588 s⁻¹ | kon [5]: 334000 M⁻¹ s⁻¹ | Kd [6]: 48.7 nM | koff [6]: 0.00739 s⁻¹ | kon [6]: 152000 M⁻¹ s⁻¹ | Kd [7]: 49.1 nM | koff [7]: 0.0125 s⁻¹ | kon [7]: 254000 M⁻¹ s⁻¹ | Kd [8]: 42 nM | koff [8]: 0.00762 s⁻¹ | kon [8]: 182000 M⁻¹ s⁻¹ | Kd [9]: 20.4 nM | koff [9]: 0.0059 s⁻¹ | kon [9]: 290000 M⁻¹ s⁻¹ | binding result [12]: binds | Kd [13]: 39300 nM | Kd [14]: 1460 nM | Kd [15]: 578000 nM | Kd [16]: 410000 nM
B1: H2Mab-214 antibody (antibody, V domains shown)
VH: QVTLKESGPGILQPSQTLSLTCSFSGFSLSTSGMGVSWIRQPSGKGLEWLAHIFWDDDKRYNPSLKSRLTISKDTSRNKVFLKITSVDTADTATYYCARRVVATDWYFDVWGAGTTVTVSS
VL: DIVLTQSPASLAVSLGQRATISCRASESVEYYGTTLMQWYQQKPGQPPKLLIYAASKVESGVPARFSGSGSGTDFSLNIHPVEEDDVAMYFCQQSRKVPLTFGAGTKLELKR
notes: Mouse monoclonal from a hybridoma (immunogen HER2ec made in LN229 cells); also called antibody of the present invention
binding result [10]: no binding (tested: 10 g/mL (so in the source)) | binding result [11]: no binding (tested: 10 g/mL (so in the source))

Kd [17]: 7.06 nM | koff [17]: 0.00052 s⁻¹ | kon [17]: 73600 M⁻¹ s⁻¹ | Kd [18]: 93.9 nM | koff [18]: 0.00828 s⁻¹ | kon [18]: 88400 M⁻¹ s⁻¹ | Kd [19]: 336 nM | koff [19]: 0.00963 s⁻¹ | kon [19]: 28700 M⁻¹ s⁻¹ | Kd [20]: 204 nM | koff [20]: 0.0108 s⁻¹ | kon [20]: 52800 M⁻¹ s⁻¹ | Kd [21]: 5.8 nM | koff [21]: 0.000432 s⁻¹ | kon [21]: 74500 M⁻¹ s⁻¹ | Kd [22]: 6.87 nM | koff [22]: 0.000453 s⁻¹ | kon [22]: 65900 M⁻¹ s⁻¹
B2: H2Mab-250 antibody (antibody, V domains shown)
VH: EVQLVESGGGLVQPGGSLKLSCAASGFTFSNYGMSWVRQTPDRRLELVATINNNGGGTYYPDSVKGRFTISRDNAKNTLYLQMSSLKSEDTAMYYCTSPGLLWDAWGAGTTVTVSS
VL: not shown
notes: as for B1
binding result [23]: no binding (tested: 10 g/mL (so in the source))
